Measured values taken from patent US20140370037A1 (published 2014).

T1: human DLL3 antigen (human, UniProt Q9NYJ7 27-492, limits assumed)
T1 construct: also called immobilized human DLL3; recombinant human DLL3
T1 sequence (looked up): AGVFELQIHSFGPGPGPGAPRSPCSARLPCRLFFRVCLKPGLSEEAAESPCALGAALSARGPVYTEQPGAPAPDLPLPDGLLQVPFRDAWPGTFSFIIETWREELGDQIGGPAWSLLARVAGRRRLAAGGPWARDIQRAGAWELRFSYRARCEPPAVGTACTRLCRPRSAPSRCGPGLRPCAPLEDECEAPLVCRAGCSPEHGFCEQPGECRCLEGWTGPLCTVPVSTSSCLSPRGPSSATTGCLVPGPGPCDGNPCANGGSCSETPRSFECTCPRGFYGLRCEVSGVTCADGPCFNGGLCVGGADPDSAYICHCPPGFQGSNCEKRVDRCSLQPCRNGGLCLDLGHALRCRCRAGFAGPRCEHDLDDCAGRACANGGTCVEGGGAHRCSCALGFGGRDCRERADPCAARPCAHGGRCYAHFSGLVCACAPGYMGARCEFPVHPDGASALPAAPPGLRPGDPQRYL


Key:
human DLL3 antigen [1] = biological target: T1, human DLL3 antigen; assay: SPR, Biacore 2000, human DLL3 antigen
Experimental: Various methods were used to analyze the binding and immunochemical characteristics of selected DLL3 modulators generated as set forth above. […] Affinities and kinetic constants kₒₙ and koff of the selected modulators were measured using bio-layer interferometry analysis on a ForteBio RED (ForteBio, Inc.) or surface plasmon resonance using a Biacore 2000 each according to the manufacturer's instructions.
(§1) In this respect the humanized constructs (CDR grafted) were compared with “traditional” chimeric antibodies comprising the murine parent (or donor) heavy and light chain variable domains and a human constant region substantially equivalent to that used in the humanized constructs. With these constructs surface plasmon resonance (SPR) was conducted using a Biacore 2000 (GE Healthcare) to identify any subtle changes in rate constants brought about by the humanization process.

human DLL3 antigen [2] = biological target: T1, human DLL3 antigen; assay: SPR, Biacore 2000, 25 and 12.5 nM human DLL3 antigen, 1:1 Langmuir model
Experimental: as §1

binding result (human DLL3 antigen [1]) | Kd (human DLL3 antigen [2]) | Binder
binds | – | hSC16.34 (antibody, V domains shown, humanized (CDR grafted)) VH: QVQLVQSGAEVKKPGASVKVSCKASGYTFTNYGMNWVRQAPGQRLEWMGWINTYTGDPTYADDFKGRVTITRDTSASTAYMELSSLRSEDTAVYYCARIGGNSPSDYWGQGTTVTVSS VL: DIQMTQSPSSLSASVGDRVTITCKASQSVSNDVAWYQQKPGKVPKLLIYYASNRYSGVPSRFSGSGSGTDFTLTISSLQPEDVATYFCQQDYSSPWTFGGGTKVEIK
binds | – | hSC16.56 (antibody, V domains shown, humanized (CDR grafted)) VH: QVQLVQSGAEVKKPGASVKVSCKASGYTFTNYGMNWVRQAPGQGLEWMGWINTYTGEPTYADDFKGRVTMTTDTSTSTAYMELRSLRSDDTAVYYCARIGDSSPSDYWGQGTLVTVSS VL: EIVMTQSPATLSVSPGERATLSCKASQSVSNDVVWYQQKPGQAPRLLIYYASNRYTGIPARFSGSGSGTEFTLTISSLQSEDFAVYYCQQDYTSPWTFGQGTKLEIKR
– | ~0.2 nM | SC16.15 (antibody, V domains shown, murine mAb) VH: QVQLQQSGAELAKPGASVKMSCKASGYTFTRYWIHWIKQRPGQGLEWIGYINPTTVYTEFNQNFKDKATLTADKSSTTASMQLSSLTSEDSAVYYCARGGSNFFDYWGQGTTLTVSS VL: DIQMTQSPASLAASVGETVAITCRASENIYYNLAWYQQKQGKSPQLLIYTANSLEDGVPSRFSGSGSGTQYSLKINSMQPEDSATYFCKQAYDVPPTFGGGTKLEIK
